Data on one substance can be found in publication PMC7504508.

The target of experiment [1] is GST-Sumo fusion protein of the perch Connexin 35 C-terminal domain (amino acids 251-304), wild type (perch).
For experiment [2] the target is unchanged. Put plainly: SPR; GST-Sumo-Cx35 fusion proteins captured by immobilised anti-GST antibodies on a CM5 chip (Biacore 2000); calmodulin as analyte, 3 nM to 30 µM; GST-Sumo reference flowcell subtracted; 1 mM free Ca2+, 0.5 mM free Mg2+, 140 mM KCl, 10 mM MOPS pH 7.2, 0.05% Tween 20; first order ligand binding …. (In general: SPR reads the build-up and loss of mass on a sensor chip optically.)

The target in experiment [3] is GST-Sumo fusion protein of the perch Cx35 C-terminal domain (251-304) I277A (perch). The experiment is described as above.
For experiment [4], the target named is GST-Sumo fusion protein of the perch Cx35 C-terminal domain (251-304) R268A (perch). The experiment is described as above.
Experiment [5] addresses GST-Sumo fusion protein of the perch Cx35 C-terminal domain (251-304) V267A (perch). The description is as above.
Experiment [6] concerns the target GST-Sumo fusion protein of the perch Cx35 C-terminal domain (251-304) V270A, Q271A (perch). Described as above.
The target in experiment [7] is GST-Sumo fusion protein of the perch Connexin 35 C-terminal domain (amino acids 251-304), wild type (perch). The experiment is described as above. This is another data set of the same source.

Where two headings read alike, the source gives them in different places.

With “calmodulin (from UniProt P0DP23 1-149) (natural protein)”, the reduction of Neurobiotin tracer coupling by 5 µM ionomycin in transiently transfected HeLa cells (full-length untagged Cx35 wild type in the cells) in experiment [1] was determined as 67%. Also, the Kd (as a rule, a measure of binding affinity in units of concentration) in experiment [2] is 1380 nM; in experiment [3] it was 1260 nM; in experiment [4] it was 2460 nM; in experiment [5], 5390 nM; in experiment [6], 1190 nM; in experiment [7] it was 1430 nM.
